Assay results published in patent US20080279856A1, “Inhibition of Bradykinin Release” (Novo Nordisk Pharmaceuticals, Inc., priority 1999, published 2008).

Assays:
[1] = 3H-LPS binding to HBP, scintillation proximity assay; settings: saturation, SPA
Experimental: The affinity for lipopolysaccharide (3H-LPS) is measured by scintillation proximity assay technology (SPA) as described (Linde, V., Bjørn, S., Kastrup, J. S., and Flodgaard, H., 2000, Biotechniques 28:218-222). All samples are repeated in triplicates.

[2] = 125I-BPTI binding to HBP, scintillation proximity assay; set-up: species or system bovine; settings: competition with unlabeled BPTI; read-out: apparent IC50 of 125I-BPTI binding
Experimental: (§1) The relative affinities of HBP and the mutants are determined by performing competition studies with […] of unlabeled BPTI.

125I-BPTI = experiment: as above; set-up: species or system bovine
Experimental: as §1

[3] = tested on: hamster cheek pouch microvasculature; experiment: Intravital microscopy of hamster cheek pouch microvessel permeability; format: in vivo, Syrian golden hamsters; settings: topical HBP 75 μg/ml
Excerpt: In order to study the effect of PMN secretion products on microvessel permeability in vivo, intravital microscopy of the hamster cheek pouch microcirculation is applied. As previously described in detail (Raud & Lindbom, 1994, Immunology of the Microcirculation, Academic Press, 1994, chapter 7), the left cheek pouch of anaesthetized Syrian golden hamsters is everted and prepared for microscopic observation under continuous superfusion with a bicarbonate buffer maintaining physiological levels of temperature, pH and gas tensions. FITC-conjugated dextran (MW: 150.000) injected i.v. (250 mg/kg body weight) is used as plasma tracer to permit visualization of changes in vascular permeability to macromolecules. The microvasculature in the exposed cheek pouch is observed under low magnification in fluorescent light with a Leitz Orthoplan microscope and recorded on video. After control recordings, superfusion is stopped and 1 ml of medium containing CD18 cross-linking-evoked PMN secretion at 37° C. is topically applied to the cheek pouch. In parallel experiments, anti-CD18-treated PMN medium is not subjected to cross-linking is used.

[4] = tested on: EC monolayers (HUVEC or BAEC); experiment: Albumin clearance (Evans blue dye-conjugated albumin) across EC monolayers after HBP stimulation; format: cell-based, human, bovine; settings: HBP 75 μg/ml; over a 60 min period
Experimental: Human umbilical vein endothelial cells (HUVEC) are isolated from fresh umbilical cords as described by Jaffe et al., 1973, J. Clin. Invest. 52:2745-2756), and bovine aorta endothelial cells (BAEC) are isolated according to the method of Booyse et al., 1975, Thromb. Diath. Haemmorrh. 24:825-839) with a few modifications. Briefly, the lumen of the umbilical vein or bovine aorta is incubated with a 0.25% collagenase solution for 10 min, and detached endothelial cells washed out with PBS. Harvested cells are pelleted and resuspended in culture medium, seeded in tissue culture flasks and incubated under standard conditions. Medium is changed every 48 h until cultures have reached confluence (3-5 days). […]
(§2) Cultured EC are detached by brief (2 min) trypsin-EDTA treatment (0.25% trypsin/0.01% EDTA) and replated onto either 0.2 μm pore size Anopore inorganic membrane or 3.0 μm pore size polycarbonate filters (Tissue Culture inserts, 10 mm; NUNC, Roskilde, Denmark). […] The ECs are grown to confluent monolayers, as assessed by daily microscopic observation and measurement of the electrical resistance across the monolayer.
Evans blue dye-conjugated albumin (EBA) is used as a marker for macromolecular permeability of the EC monolayers. […] In experiments where albumin permeability is analyzed, the culture medium in the upper compartment is exchanged for medium containing EBA. […]

fecal peritonitis = settings: HBP treatment; cited from earlier work
[5] = tested on: EC monolayers (HUVEC or BAEC); experiment: Transendothelial electrical resistance (TEER) of EC monolayers after HBP stimulation; format: cell-based, human, bovine
Experimental: Human umbilical vein endothelial cells (HUVEC) are isolated from fresh umbilical cords as described by Jaffe et al., 1973, J. Clin. Invest. 52:2745-2756), and bovine aorta endothelial cells (BAEC) are isolated according to the method of Booyse et al., 1975, Thromb. Diath. Haemmorrh. 24:825-839) with a few modifications. Briefly, the lumen of the umbilical vein or bovine aorta is incubated with a 0.25% collagenase solution for 10 min, and detached endothelial cells washed out with PBS. Harvested cells are pelleted and resuspended in culture medium, seeded in tissue culture flasks and incubated under standard conditions. Medium is changed every 48 h until cultures have reached confluence (3-5 days). HUVEC or BAEC in the first to fifth passages are used in the experiments. Identification and purity determination of ECs are based on cobblestone morphology and characterization by factor VIII/vWf antigen (Booyse et al., 1975, Thromb. Diath. Haemmorrh. 24:825-839). Staining for factor VIII/vWf factor is homogeneous in the cells.
as §2
For measurement of electrical resistance across the EC monolayer, the filter insert is transferred to a resistance measurement chamber (ENDOHM-12; World Precision Instruments, Sarasota, Fla., USA) modified so as to assure exact positioning of the electrodes in relation to each other and to the filter insert during repeated measurements. […] Direct readings of the electrical resistance are given by an ohmmeter (EVOM; World Precision Instruments, Sarasota, Fla., USA) connected to the electrodes of the resistance chamber. […]

B1: HBP: Native human heparin-binding protein, mature form with the amino acid sequence SEQ ID NO:1 (protein, listed as Homo sapiens)
chain: IVGGRKARPRQFPFLASIQNQGRHFCGGALIHARFVMTAASCFQSQNPGVSTVVLGAYDLRRRERQSRQTFSISSMSENGYDPQQNLNDLMLLQLDREANLTSSVTILPLPLQNATVEAGTRCQVAGWGSQRSGGRLSRFPRFVNVTVTPEDQCRPNNVCTGVLTRRGGICNGDGGTPLVCEGLAHGVASFSLGPCGRGPDFFTRVALFRDWIDGVLNNPGPGPA
apparent Kd for 3H-LPS [1]: approximately 0.7 μg/mL | IC50 [2]: ~7 nM | binding of BPTI (125I-BPTI): binds BPTI | time of maximum leakage response after challenge [3]: 7 to 10 min | time to complete disappearance of leakage [3]: ≤ 30 min | time to visible leaky spots of fluorescent tracer [3]: ≤ 2 min | net albumin clearance volume [4]: 20.4 ± 3.4 µL | survival (fecal peritonitis): rescue mice from an otherwise lethal injury | onset of decrease in transendothelial resistance ([5]; HBP 75 μg/ml to upper compartment): within one min | decrease in transendothelial resistance, maximum ([5]; HBP 75 μg/ml to upper compartment, after 15 min): 30%±3% | dose dependence of EC responses (TEER) ([5]; HBP 25, 50 and 75 μg/ml): clearly dose-dependent
